Results on one molecule are retold here after patent publication US20080096222A1 (BRIGHAM AND WOMEN S HOSPITAL, published 2008).

The target in experiment [1] is T1, H2B-GST (residues 1-35 of human H2B fused to GST) (human, UniProt P62807 2-36).
T1 construct: range 1-35; not shown: glutathione S-transferase (GST) encoded by vector pETGEX-CT
As to the kind of experiment: GST pulldown from lysates of myc-haspin-transfected cells. On the procedure:
(§1) For immunoprecipitation, cells are suspended in 50 mM Tris/0.5 M NaCl/1% Triton X-100/1% DOC/0.1% SDS/2 mM EDTA, pH 7.4 (buffer L) with 1 μg/ml pepstatin/1 μg/ml leupeptin/1 μg/ml antipain/1 μg/ml chymostatin/1 mM phenylmethylsulphyl fluoride/1 mM NaF/0.1 μM okadaic acid and lysed by shearing 15 times through a 21 gauge needle. Insoluble material is removed by centrifugation for 15 min at 13,000 rpm and the lysates precleared with protein G-Sepharose and concentrations equalized based on Bradford assay (Bio-Rad). Lysates are incubated with antibodies for 1.5 h at 4° C. before addition of protein G-Sepharose for a further 1.5 h. Beads are washed 4 times with buffer L and thrice with Hepes-buffered saline, pH 7.4 (HBS). For GST pulldown assays, cells are lysed in 20 mM Tris/1% Triton X-100/1 mM EDTA/1 mM DTT, pH 7.4 (buffer T) containing 0.3 M NaCl and protease and phosphatase inhibitors as above, clarified, and precleared with glutathione-Sepharose. […]
(§2) To examine the interaction of haspin with H3, we utilized the H3-GST fusion proteins in “pulldown” assays from lysates of myc-haspin-transfected cells. In the conditions of the assay, myc-haspin bound to H3-GST, whereas the binding of myc-haspin to GST alone, H2B-GST and H4-GST was not detected.

In the next experiment the target is T2, GST alone (UniProt P08515 1-218 = GST).
T2 construct: Control protein
T2 sequence (P08515 whole entry): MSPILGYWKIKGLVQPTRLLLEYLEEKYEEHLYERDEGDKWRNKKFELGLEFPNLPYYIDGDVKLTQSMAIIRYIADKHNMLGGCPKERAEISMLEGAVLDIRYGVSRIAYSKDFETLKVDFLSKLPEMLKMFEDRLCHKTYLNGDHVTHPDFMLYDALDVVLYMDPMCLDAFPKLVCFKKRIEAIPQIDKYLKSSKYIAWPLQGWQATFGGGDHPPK
Described as above. On the procedure:
as §1, §2

T1 sequence (P62807 2-36): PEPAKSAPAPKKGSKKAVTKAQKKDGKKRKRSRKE

B1: myc-tagged human haspin (enzyme)
chain: AASLPGPGSRLFRTYGAADGRRQRRPGREAAQWFPPQDRRRFFNSSGSSDASIGDPSQSDDPDDPDDPDFPGSPVRRRRRCPGGRVPKDRPSLTVTPKRWKLRARPSLTVTPRRLGLRARPPQKCSTPCGPLRLPPFPSRDSGRLSPDLSVCGQPRDGDELGISASLFSSLASPCPGSPTPRDSVISIGTSACLVAASAVPSDLHLPEVSLDRASLPCSQEEATGGAKDTRMVHQTRASLRSVLFGLMNSGTPEDSEFRADGKNMRESCCKRKLVVGNGPEGPGLSSTGKRRATGQDSCQERGLQEAVRREHQEASVPKGRIVPRGTDRLERTRSSRKSKHQEATETSLLHSHRFKKGQKLGKDSFPTQDLTPLQNACFWTKTRASFSFHKKKIVTDVSEVCSIYTTATSLSGSLLSECSNRPVMNRTSGAPSSWHSSSMYLLSPLNTLSISNKKASDAEKVYGECSQKGPVPFSHCLPTEKLQRCEKIGEGVFGEVFQTIADHTPVAIKIIAIEGPDLVNGSHQKTFEEILPEIIISKELSLLSGEVCNRTEGFIGLNSVHCVQGSYPPLLLKAWDHYNSTKGSANDRPDFFKDDQLFIVLEFEFGGIDLEQMRTKLSSLATAKSILHQLTASLAVAEASLRFEHRDLHWGNVLLKKTSLKKLHYTLNGKSSTIPSCGLQVSIIDYTLSRLERDGIVVFCDVSMDEDLFTGDGDYQFDIYRLMKKENNNRWGEYHPYSNVLWLHYLTDKMLKQMTFKTKCNTPAMKQIKRKIQEFHRTMLNFSSATDLLCQHSLFK
notes: Expressed in transfected HEK293 or HeLa cells and used from cell lysates; also called myc-haspin; full-length haspin; not shown: myc tag encoded by the pcDNA3-derived plasmid pCANmyc1
For B1, the binding result (in experiment [1]; with GST alone) was “no binding” in each case.
